Results: patent publication US8466107B2, “Fibrin-binding peptides and conjugates thereof” (Bracco Imaging SpA, priority 2006, dated 2013)
Values belong to the molecule of their own block, whether it stands above or below them. Numbered stars: 1 amine (or outer) side, 2 acyl side, 3 side chain; on linkers, the order of the positions; unused ones are H or OH. Bridge positions count the residues as written; N and C are the ends. Square brackets hold non-standard residues; d marks the D form. Side chains are listed from the residue outwards. Ends that are not written are not given here. Peptide text beside a SMILES is read from it. * marks the point of attachment. DSPE = distearoyl phosphatidylethanolamine, CCCCCCCCCCCCCCCCCC(=O)OC[C@H](COP(=O)(O)OCCN*)OC(=O)CCCCCCCCCCCCCCCCC; DPPE = CCCCCCCCCCCCCCCC(=O)OC[C@H](COP(=O)(O)OCCN*)OC(=O)CCCCCCCCCCCCCCC; Tuda = 3,6,9-trioxaundecane-1,11-dioyl, O=C(COCCOCCOCC(=O)[*:3])[*:2]; 5FAM = O=C1OC2(c3ccc(O)cc3Oc3cc(O)ccc32)c2ccc(C(=O)*)cc21; Glutaryl = O=C(CCCC(=O)[*:2])[*:1]; Cha = N[C@@H](CC1CCCCC1)C(=O)O; PG4 = not defined here; AEEA = NCCOCCOCC(=O)O

How the values were obtained:
[1] = target: DDE (fibrin-derived polypeptide) (Homo sapiens, UniProt P02671+P02675+P02679); test: Direct binding fluorescence polarization (FP) assay using 5-carboxyfluorescein labeled peptides; conditions: 20 nM CF5-labeled peptide, serial dilutions of DDE, anisotropy read at 485 nm; read-out: KD (μM) Direct Binding (n = 2)
fibrin = target: T1, fibrin (Homo sapiens, UniProt P02671+P02675+P02679); test: Dynamic binding test of targeted microvesicles on fibrin-coated coverslips in a parallel-plate flow chamber; conditions: shear rate about 114 s^-1, 10 min, 50% human plasma
T1 sequence (P02671 36-629 limits assumed): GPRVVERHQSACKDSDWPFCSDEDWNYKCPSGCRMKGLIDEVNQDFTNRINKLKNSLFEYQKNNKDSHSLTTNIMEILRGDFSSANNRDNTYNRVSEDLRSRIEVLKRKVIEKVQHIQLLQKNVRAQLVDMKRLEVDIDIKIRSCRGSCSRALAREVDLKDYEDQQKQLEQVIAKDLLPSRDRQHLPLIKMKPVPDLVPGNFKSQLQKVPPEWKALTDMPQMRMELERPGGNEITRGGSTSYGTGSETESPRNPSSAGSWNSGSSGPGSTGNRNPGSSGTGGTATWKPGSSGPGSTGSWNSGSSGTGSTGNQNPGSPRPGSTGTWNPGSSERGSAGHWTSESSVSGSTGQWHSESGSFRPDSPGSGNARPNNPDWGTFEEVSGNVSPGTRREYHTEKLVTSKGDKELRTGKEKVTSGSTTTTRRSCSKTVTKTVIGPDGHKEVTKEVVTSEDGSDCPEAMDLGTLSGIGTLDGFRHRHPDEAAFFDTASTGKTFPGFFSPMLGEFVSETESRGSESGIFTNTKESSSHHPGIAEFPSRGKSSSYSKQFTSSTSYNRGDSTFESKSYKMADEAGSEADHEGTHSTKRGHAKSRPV
T1 sequence (P02675 45-491 limits assumed): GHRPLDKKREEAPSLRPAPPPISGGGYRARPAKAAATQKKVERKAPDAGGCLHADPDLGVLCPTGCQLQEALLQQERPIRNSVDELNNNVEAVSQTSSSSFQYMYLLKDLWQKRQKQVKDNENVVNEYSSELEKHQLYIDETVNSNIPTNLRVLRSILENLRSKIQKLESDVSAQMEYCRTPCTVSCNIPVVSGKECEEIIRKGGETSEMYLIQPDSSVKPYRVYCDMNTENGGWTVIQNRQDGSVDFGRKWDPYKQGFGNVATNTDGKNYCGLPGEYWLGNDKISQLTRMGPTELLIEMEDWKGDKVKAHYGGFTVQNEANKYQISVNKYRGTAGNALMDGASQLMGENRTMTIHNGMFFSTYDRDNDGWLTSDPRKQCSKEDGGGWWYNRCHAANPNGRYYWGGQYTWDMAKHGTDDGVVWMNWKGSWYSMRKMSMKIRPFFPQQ
T1 sequence (P02679 27-437 isoform P02679-2 limits assumed): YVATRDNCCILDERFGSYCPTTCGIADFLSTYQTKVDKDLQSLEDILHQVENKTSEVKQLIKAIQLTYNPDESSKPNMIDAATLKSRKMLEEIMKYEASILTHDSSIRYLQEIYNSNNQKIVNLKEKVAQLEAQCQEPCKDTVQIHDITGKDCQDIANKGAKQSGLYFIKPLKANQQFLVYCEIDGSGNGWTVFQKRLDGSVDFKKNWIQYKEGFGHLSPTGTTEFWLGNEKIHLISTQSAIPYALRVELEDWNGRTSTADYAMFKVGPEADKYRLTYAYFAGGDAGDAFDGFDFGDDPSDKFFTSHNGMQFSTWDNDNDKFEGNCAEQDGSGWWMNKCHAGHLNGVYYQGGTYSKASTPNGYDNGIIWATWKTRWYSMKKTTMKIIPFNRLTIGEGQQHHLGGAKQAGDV
Experimental: Glass coverslips (40 mm in diameter, Bioptechs Inc., Butler, Pa., USA) were coated with fibrin according the following methodology.
Five mL of a solution of BSA 1% w/v in PBS pH 7.4 were added into a 60 mm Petri Dish containing one coverslip, and incubated at 37° C. for 15 min. Then the coverslip was washed three times with 5 ml of Tween 80/PBS (0.1%, v:v). Twenty five μL of human thrombin solution at 5 U/mL were added per mL of human fibrinogen solution (0.5 mg/mL in 50 mM sodium phosphate, NaCl 280 mM, pH 7.4) and delicately mixed. Five mL of this solution were immediately distributed in each Petri dish. The coverslips were incubated for one hour at 37° C. and then dried overnight at 45° C.
Binding studies of targeted microvesicles were carried out using a parallel-plate flow chamber (FCS2, Bioptech Inc., Butler, Pa., USA) with a chamber gasket of 0.25 mm in thickness, with a customized adapter for upside-down chamber inversion. The coated coverslip was inserted as a plate of the flow chamber. Gas-filled Microvesicles (5×10^6 bubbles/mL in 50% human plasma in PBS) were drawn through the flow chamber using an adjustable infusion pump (Auto Syringe® AS50 Infusion Pump, Baxter, Deerfield, Ill., USA) with a 60 mL syringe (Terumo). The pump flow rate was adjusted to 1 mL/min to obtain the desired shear rate of about 114 s^−1. After 10 minutes, the flow was stopped and pictures were taken randomly on different positions on the coverslip (on surfaces of about 0.025 mm^2) using a 40× objective and a CCD monochrome camera (F-View II, Soft Imaging Systems, Germany) connected to an inverted Olympus IX 50 microscope. The number of microvesicles on each picture was determined, averaged with respect to the total number of pictures and the obtained value was then divided by ten (to obtain the “slope”, i.e. the average amount of bound microvesicles per minute).
For each preparation of Examples 17-20, the binding assay was repeated four times thus obtaining an average value of the slope. The slope represents the microvesicle binding rate on the target substrate. […] A higher slope indicates a better capacity of microvesicles to bind to the target under flow conditions.

[2] = microvesicles with DSPC/DSPG envelope, Examples 19C-19E (0.45 μmoles lipopeptide, 0.45 μmoles DSPE-PEG1000)
[3] = microvesicles with DSPC/stearate envelope containing the lipopeptide (Examples 20A-20D)
[4] = microvesicles with DPPE/DPPG envelope containing the lipopeptide (Examples 18A-18C), slope = average bound microvesicles per minute
[5] = microvesicles with DSPC/DPPG envelope containing the lipopeptide (Examples 17A-17B, molar ratio 47.5/47.5/5), slope = average bound microvesicles per minute
[6] = microvesicles with DSPC/DSPA envelope, 0.26 μmoles lipopeptide (Examples 20E, 20G, 20H)

Molecule: Ac-GWQPC*PWESWTFC*WDPGGGK(DSPE-PG4-Glut)-NH2 (Ac-GWQPCPWESWTFCWDPGGGK([Glutaryl-PG4-DSPE])-NH2; disulfide 5-13; reading uncertain; also: printed as Ac-GWQPC*PWESWTFC*WDPGGGK(DSPE-PG4-Glut)-NH2) [Seq016-PL1]
Slope (fibrin; [2]): 11.5
Slope (fibrin; [3]): 8.4

Molecule: Ac-SGSGJWQPC*PWESWTFC*WDPGGGK(DSPE-PG4-Glut)-NH2 (Ac-SGSG[AEEA]WQPCPWESWTFCWDPGGGK-NH2; disulfide 9-17; not fully specified (residue 24); printed as Ac-SGSGJWQPC*PWESWTFC*WDPGGGK(DSPE-PG4-Glut)-NH2) [Seq017-PL1]
Slope (fibrin; [4]): 8.9
Slope (fibrin; [3]): 3.1

Molecule: Ac-SGSGSGSGWQPC*PWESWTFC*WDPGGGK(DSPE-PG4-Glut)-NH2 (Ac-SGSGSGSGWQPCPWESWTFCWDPGGGK([Glutaryl-PG4-DSPE])-NH2; disulfide 12-20; reading uncertain; also: printed as Ac-SGSGSGSGWQPC*PWESWTFC*WDPGGGK(DSPE-PG4-Glut)-NH2) [Seq024-PL1]
Slope (fibrin; [2]): 6.2

Molecule: Ac-WQPC*PAESWTFC*WDPGGGK(DSPE-PG4-Glut)-NH2 (Ac-WQPCPAESWTFCWDPGGGK([Glutaryl-PG4-DSPE])-NH2; disulfide 4-12; reading uncertain; also: printed as Ac-WQPC*PAESWTFC*WDPGGGK(DSPE-PG4-Glut)-NH2) [Seq005-PL1]
Slope (fibrin; [4]): 7.2
Slope (fibrin; [5]): 8.54
Slope (fibrin; [3]): 6.1

Molecule: Ac-WQPC*PWESWTFC*WDPGGGK(DPPE-PG4-Glut)-NH2 (Ac-WQPCPWESWTFCWDPGGGK([Glutaryl-PG4-DPPE])-NH2; disulfide 4-12; reading uncertain) [Seq000-PL1, reference compound]
Slope (fibrin; [4]): 4.8
Slope (fibrin; [5]): 6.44
Slope (fibrin; microvesicles with DSPC/DSPG envelope, Example 19A (0.63 μmole lipopeptide, 0.28 μmole DSPE-PEG1000)): 4.4
Slope (fibrin; microvesicles with DSPC/DSPG envelope, Example 19B (0.36 μmole lipopeptide, 1.44 μmoles DSPE-PEG1000)): 4.9
Slope (fibrin; [3]): 1.6

Molecule: Ac-WQPCPAESWTFCWDPGSAGSK(DPPE-Pro9-Glut-Ttda-Dga)-NH2 (Ac-WQPCPAESWTFCWDPGSAGSK-NH2; disulfide 4-12 (inferred); not fully specified (residue 21)) [Seq005-PL4]
Slope (fibrin; [6]): 6.4
Slope (fibrin; microvesicles with DSPC/DSPA envelope, 0.795 μmoles lipopeptide (Example 20F)): 8.0

Molecule: RWQPC*PWESWTFC*WDPGGGK(DSPE-PG4-Glut)-NH2 (RWQPCPWESWTFCWDPGGGK([Glutaryl-PG4-DSPE])-NH2; disulfide 5-13; reading uncertain; also: printed as RWQPC*PWESWTFC*WDPGGGK(DSPE-PG4-Glut)-NH2) [Seq023-PL1]
Slope (fibrin; [2]): 8.5

Molecule: Seq000-PL2: comparative lipopeptide prepared from Seq000(Adoa-Adoa) and DPPE (Ac-WQPCPWESWTFCWDPGGGK([AEEA-AEEA-Tuda-DPPE])-NH2; disulfide 4-12) [reference compound]
Slope (fibrin; [6]): 4.6

Continued, values first:

Kd [1]: 0.08 µM
Molecule: CC(=O)NCC(=O)N[C@@H](Cc1c[nH]c2ccccc12)C(=O)N[C@@H](CCC(N)=O)C(=O)N1CCC[C@H]1C(=O)N[C@H]1CSSC[C@@H](C(=O)N[C@@H](Cc2c[nH]c3ccccc23)C(=O)N[C@@H](CC(=O)O)C(=O)N2CCC[C@H]2C(=O)NCC(=O)NCC(=O)NCC(=O)N[C@@H](CCCCNC(=O)c2ccc3c(c2)C(=O)OC32c3ccc(O)cc3Oc3cc(O)ccc32)C(N)=O)NC(=O)[C@H](CC2CCCCC2)NC(=O)[C@H]([C@@H](C)O)NC(=O)[C@H](Cc2c[nH]c3ccccc23)NC(=O)[C@H](CO)NC(=O)[C@H](CCC(=O)O)NC(=O)[C@H](C)NC(=O)[C@@H]2CCCN2C1=O [Seq055-CF5, Ac-GWQPC*PAESWT-Cha-C*WDPGGGK(CF5)-NH2] (Ac-GWQPCPAESWT[Cha]CWDPGGGK(5FAM)-NH2; disulfide 5-13)

Kd [1]: 0.06 µM
Molecule: C[C@@H]1NC(=O)[C@@H]2CCCN2C(=O)[C@@H](NC(=O)[C@@H]2CCCN2C(=O)[C@H](CCC(N)=O)NC(=O)[C@H](Cc2c[nH]c3ccccc23)NC(=O)[C@@H](N)CCCNC(=N)N)CSSC[C@@H](C(=O)N[C@@H](Cc2c[nH]c3ccccc23)C(=O)N[C@@H](CC(=O)O)C(=O)N2CCC[C@H]2C(=O)NCC(=O)NCC(=O)NCC(=O)N[C@@H](CCCCNC(=O)c2ccc3c(c2)C(=O)OC32c3ccc(O)cc3Oc3cc(O)ccc32)C(N)=O)NC(=O)[C@H](Cc2ccccc2)NC(=O)[C@H]([C@@H](C)O)NC(=O)[C@H](Cc2c[nH]c3ccccc23)NC(=O)[C@H](CO)NC(=O)[C@H](CCC(=O)O)NC1=O [Seq056-CF5] (H-RWQPCPAESWTFCWDPGGGK(5FAM)-NH2; disulfide 5-13)

Kd [1]: 0.03 µM
Molecule: C[C@@H]1NC(=O)[C@@H]2CCCN2C(=O)[C@@H](NC(=O)[C@@H]2CCCN2C(=O)[C@H](CCC(N)=O)NC(=O)[C@H](Cc2c[nH]c3ccccc23)NC(=O)[C@@H](N)CCCNC(=N)N)CSSC[C@@H](C(=O)N[C@@H](Cc2c[nH]c3ccccc23)C(=O)N[C@@H](CC(=O)O)C(=O)N2CCC[C@H]2C(=O)NCC(=O)NCC(=O)NCC(=O)N[C@@H](CCCCNC(=O)c2ccc3c(c2)C(=O)OC32c3ccc(O)cc3Oc3cc(O)ccc32)C(N)=O)NC(=O)[C@H](CC2CCCCC2)NC(=O)[C@H]([C@@H](C)O)NC(=O)[C@H](Cc2c[nH]c3ccccc23)NC(=O)[C@H](CO)NC(=O)[C@H](CCC(=O)O)NC1=O [Seq057-CF5, RWQPC*PAESWT-Cha-C*WDPGGGK(CF5)-NH2] (H-RWQPCPAESWT[Cha]CWDPGGGK(5FAM)-NH2; disulfide 5-13)

Slope (fibrin; [6]): 6.0
Molecule: Ac-WQPCPAESWTFCWDPGAGSGK(DPPE-Pro9-Glut-Ttda-Dga)-NH2 (Ac-WQPCPAESWTFCWDPGAGSGK-NH2; disulfide 4-12 (inferred); not fully specified (residue 21)) [Seq005-PL5]
